This passage reports activity results from US20240247250.

Read-outs that look alike come from different tables or passages of the source.

In data set [1] the target is tRNA-guanine transglycosylase (TGT) (Escherichia coli) (UniProt P0A847). The note with it: urea PAGE shift.
For data set [2] the target is unchanged. Particulars: urea PAGE shift; best of composite hairpins.

tRNA-guanine transglycosylase (TGT) (Escherichia coli), sequence (P0A847 whole entry): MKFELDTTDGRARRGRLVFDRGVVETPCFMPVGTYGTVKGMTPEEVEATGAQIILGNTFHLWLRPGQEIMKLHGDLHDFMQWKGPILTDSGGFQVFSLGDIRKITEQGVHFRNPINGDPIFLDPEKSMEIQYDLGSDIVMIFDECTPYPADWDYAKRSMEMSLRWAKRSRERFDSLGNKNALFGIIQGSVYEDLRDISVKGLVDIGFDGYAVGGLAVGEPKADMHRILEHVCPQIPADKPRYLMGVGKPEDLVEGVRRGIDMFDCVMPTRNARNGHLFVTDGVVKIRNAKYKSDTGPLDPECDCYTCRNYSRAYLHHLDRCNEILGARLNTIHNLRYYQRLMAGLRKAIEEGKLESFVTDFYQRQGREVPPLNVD

Asp 17 nt DNA hairpin: the activity in data set [1] was determined as 40 % labeled.

In the case of His stem-Asp loop hairpin, the activity in data set [2] was more than 50 % labeled.

Regarding Tyr 17 nt DNA hairpin, the activity in data set [1] (printed as ~-5%) came out at 5 % labeled.

Regarding His 17 nt DNA hairpin, the activity in data set [1] amounted to 40 % labeled.
